Results from US20200079833A1 (AstraZeneca / MedImmune, published 2020).
Starred links: 1 amine or outer side, 2 acyl side, 3 side chain; linkers in the order of their positions; H or OH if unused. Non-standard residues stand in square brackets, D forms with d. Groups on a side chain read outwards from the residue. Primed or numbered codes have the meaning given here. No end group written: not given here. *: point of attachment. Dodecylbenzoate = dodecylbenzoyl lipid group; γGlu = O=C(O)[C@H](CCC(=O)[*:2])N[*:1]; αMeF = C[C@](N)(Cc1ccccc1)C(=O)O; αMeK = C[C@](N)(CCCCN)C(=O)O; Lauroyl = CCCCCCCCCCCC(=O)*; αMeS = C[C@](N)(CO)C(=O)O; PEG2′ = not defined here; Aib = CC(C)(N)C(=O)O; Ahx = NCCCCCC(=O)O

T1: glucose-dependent insulinotropic peptide (gastric inhibitory polypeptide) receptor (GIPR) (human, UniProt P48546 22-466)
T1 sequence (looked up): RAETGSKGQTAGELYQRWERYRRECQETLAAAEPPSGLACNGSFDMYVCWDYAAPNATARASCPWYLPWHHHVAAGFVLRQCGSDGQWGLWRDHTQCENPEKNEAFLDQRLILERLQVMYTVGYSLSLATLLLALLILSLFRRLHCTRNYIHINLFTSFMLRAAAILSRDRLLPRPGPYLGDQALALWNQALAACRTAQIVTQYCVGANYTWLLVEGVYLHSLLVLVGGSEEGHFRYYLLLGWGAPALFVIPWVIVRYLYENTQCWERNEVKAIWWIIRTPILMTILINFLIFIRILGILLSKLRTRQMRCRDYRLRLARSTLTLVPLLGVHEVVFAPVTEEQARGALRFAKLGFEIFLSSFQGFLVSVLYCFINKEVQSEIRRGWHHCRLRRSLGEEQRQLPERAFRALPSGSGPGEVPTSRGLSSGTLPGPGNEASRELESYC


How the values were obtained:
Test in all cases: cell-based or functional assay
[1] = molecular target: T1, glucose-dependent insulinotropic …
glucagon receptor (GCGR) = glucagon receptor (GCGR) (human, UniProt P47871 26-477)
GLP-1 receptor (GLP-1R) = GLP-1 receptor (GLP-1R) (human, UniProt P43220 24-463)

Sequence of glucagon receptor (GCGR) (P47871 26-477): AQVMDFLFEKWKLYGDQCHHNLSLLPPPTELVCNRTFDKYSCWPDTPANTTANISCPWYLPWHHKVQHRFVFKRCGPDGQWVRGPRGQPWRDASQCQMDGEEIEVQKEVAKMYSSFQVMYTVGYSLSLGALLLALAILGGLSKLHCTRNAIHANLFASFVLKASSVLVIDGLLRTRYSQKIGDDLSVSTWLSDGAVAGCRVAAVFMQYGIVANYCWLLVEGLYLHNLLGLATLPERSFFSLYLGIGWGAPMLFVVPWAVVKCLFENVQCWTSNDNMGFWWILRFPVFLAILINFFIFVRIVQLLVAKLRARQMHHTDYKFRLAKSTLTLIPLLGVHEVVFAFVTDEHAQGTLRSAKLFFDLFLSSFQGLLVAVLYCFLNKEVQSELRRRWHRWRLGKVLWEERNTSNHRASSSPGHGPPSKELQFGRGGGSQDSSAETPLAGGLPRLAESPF

Binder | Primary assay EC50 (cAMP), GIP-R, first run [1] | Primary assay EC50 (cAMP), GIP-R, second run [1] | Primary assay EC50 (cAMP), Gluc-R, first run (glucagon receptor (GCGR)) | Primary assay EC50 (cAMP), Gluc-R, second run (glucagon receptor (GCGR)) | Primary assay EC50 (cAMP), GLP-1R n1 (GLP-1 receptor (GLP-1R)) | Primary assay EC50 (cAMP), GLP-1R n2 (GLP-1 receptor (GLP-1R)) | Primary assay EC50 (cAMP), Mean pM GLP-1R (GLP-1 receptor (GLP-1R))
H[Aib]EGS[αMeF]TSDV[αMeS]S[αMeF]LEGEAA[αMeK]E[αMeF]IA[αMeF]VVK([Ahx-Dodecylbenzoate])GG-NH2 [SEQ ID NO 176] | 27 nM | 27 nM | 27 nM | 27 nM | 0.023 nM | 0.0096 nM | 16 pM
H[Aib]EGS[αMeF]TSDV[αMeS]S[αMeF]LEGEAA[αMeK]E[αMeF]IA[αMeF]VVK([Ahx-Lauroyl])GG-NH2 (N-terminus assumed; SMILES CCCCCCCCCCCC(=O)NCCCCCC(=O)NCCCC[C@H](NC(=O)[C@@H](NC(=O)[C@@H](NC(=O)[C@](C)(Cc1ccccc1)NC(=O)[C@H](C)NC(=O)[C@@H](NC(=O)[C@](C)(Cc1ccccc1)NC(=O)[C@H](CCC(=O)O)NC(=O)[C@](C)(CCCCN)NC(=O)[C@H](C)NC(=O)[C@H](C)NC(=O)[C@H](CCC(=O)O)NC(=O)CNC(=O)[C@H](CCC(=O)O)NC(=O)[C@H](CC(C)C)NC(=O)[C@](C)(Cc1ccccc1)NC(=O)[C@H](CO)NC(=O)[C@](C)(CO)NC(=O)[C@@H](NC(=O)[C@H](CC(=O)O)NC(=O)[C@H](CO)NC(=O)[C@@H](NC(=O)[C@](C)(Cc1ccccc1)NC(=O)[C@H](CO)NC(=O)CNC(=O)[C@H](CCC(=O)O)NC(=O)C(C)(C)NC(=O)[C@@H](N)Cc1c[nH]cn1)[C@@H](C)O)C(C)C)[C@@H](C)CC)C(C)C)C(C)C)C(=O)NCC(=O)NCC(N)=O) [SEQ ID NO 167] | 29 nM | 29 nM | 29 nM | 29 nM | 0.013 nM | 0.0069 nM | 10 pM
H[Aib]EGS[αMeF]TSDV[αMeS]S[αMeF]LEGEAA[αMeK]E[αMeF]IA[αMeF]VVK([Ahx-Ahx-Dodecylbenzoate])GG-NH2 [SEQ ID NO 177] | 27 nM | 27 nM | 27 nM | 27 nM | 0.0064 nM | 0.003 nM | 4.7 pM
H[Aib]EGS[αMeF]TSDV[αMeS]S[αMeF]LEGEAA[αMeK]E[αMeF]IA[αMeF]VVK([Ahx-Ahx-Ahx-Dodecylbenzoate])GG-NH2 [SEQ ID NO 178] | 26 nM | 26 nM | 26 nM | 26 nM | 0.005 nM | 0.0023 nM | 3.6 pM
H[Aib]EGS[αMeF]TSDV[αMeS]S[αMeF]LEGEAA[αMeK]E[αMeF]IA[αMeF]VVK([γGlu-Dodecylbenzoate])GG-NH2 [SEQ ID NO 173] | 27 nM | 27 nM | 27 nM | 27 nM | 0.021 nM | 0.0092 nM | 15.1 pM
H[Aib]EGS[αMeF]TSDV[αMeS]S[αMeF]LEGEAA[αMeK]E[αMeF]IA[αMeF]VVK([PEG2′-PEG2′-Lauroyl])GG-NH2 [SEQ ID NO 171] | 27 nM | 27 nM | 27 nM | 27 nM | 0.0025 nM | 0.0012 nM | 1.9 pM
H[Aib]EGS[αMeF]TSDV[αMeS]S[αMeF]LEGEAA[αMeK]E[αMeF]IA[αMeF]VVK([PEG2′-Dodecylbenzoate])GG-NH2 [SEQ ID NO 179] | 27 nM | 27 nM | 27 nM | 27 nM | 0.011 nM | 0.0044 nM | 7.9 pM

Further lines, results first:

Primary assay EC50 (cAMP), GIP-R, first run [1] | Primary assay EC50 (cAMP), GIP-R, second run [1] | Primary assay EC50 (cAMP), Gluc-R, first run (glucagon receptor (GCGR)) | Primary assay EC50 (cAMP), Gluc-R, second run (glucagon receptor (GCGR)) | Primary assay EC50 (cAMP), GLP-1R n1 (GLP-1 receptor (GLP-1R)) | Primary assay EC50 (cAMP), GLP-1R n2 (GLP-1 receptor (GLP-1R)) | Primary assay EC50 (cAMP), Mean pM GLP-1R (GLP-1 receptor (GLP-1R)) | Binder
27 nM | 27 nM | 27 nM | 27 nM | 0.0034 nM | 0.0017 nM | 2.6 pM | H[Aib]EGS[αMeF]TSDV[αMeS]S[αMeF]LEGEAA[αMeK]E[αMeF]IA[αMeF]VVK([Ahx-Ahx-Ahx-Lauroyl])GG-NH2 (N-terminus assumed; SMILES CCCCCCCCCCCC(=O)NCCCCCC(=O)NCCCCCC(=O)NCCCCCC(=O)NCCCC[C@H](NC(=O)[C@@H](NC(=O)[C@@H](NC(=O)[C@](C)(Cc1ccccc1)NC(=O)[C@H](C)NC(=O)[C@@H](NC(=O)[C@](C)(Cc1ccccc1)NC(=O)[C@H](CCC(=O)O)NC(=O)[C@](C)(CCCCN)NC(=O)[C@H](C)NC(=O)[C@H](C)NC(=O)[C@H](CCC(=O)O)NC(=O)CNC(=O)[C@H](CCC(=O)O)NC(=O)[C@H](CC(C)C)NC(=O)[C@](C)(Cc1ccccc1)NC(=O)[C@H](CO)NC(=O)[C@](C)(CO)NC(=O)[C@@H](NC(=O)[C@H](CC(=O)O)NC(=O)[C@H](CO)NC(=O)[C@@H](NC(=O)[C@](C)(Cc1ccccc1)NC(=O)[C@H](CO)NC(=O)CNC(=O)[C@H](CCC(=O)O)NC(=O)C(C)(C)NC(=O)[C@@H](N)Cc1c[nH]cn1)[C@@H](C)O)C(C)C)[C@@H](C)CC)C(C)C)C(C)C)C(=O)NCC(=O)NCC(N)=O) [SEQ ID NO 169]
26 nM | 26 nM | 26 nM | 26 nM | 0.0015 nM | 0.00072 nM | 1.1 pM | H[Aib]EGS[αMeF]TSDV[αMeS]S[αMeF]LEGEAA[αMeK]E[αMeF]IA[αMeF]VVK([PEG2′-PEG2′-PEG2′-Lauroyl])GG-NH2 [SEQ ID NO 172]
26 nM | 26 nM | 26 nM | 26 nM | 0.023 nM | 0.012 nM | 17.4 pM | H[Aib]EGS[αMeF]TSDV[αMeS]S[αMeF]LEGEAA[αMeK]E[αMeF]IA[αMeF]VVK([γGlu-γGlu-γGlu-Dodecylbenzoate])GG-NH2 [SEQ ID NO 175]
28 nM | 28 nM | 28 nM | 28 nM | 0.008 nM | 0.0045 nM | 6.2 pM | H[Aib]EGS[αMeF]TSDV[αMeS]S[αMeF]LEGEAA[αMeK]E[αMeF]IA[αMeF]VVK([PEG2′-Lauroyl])GG-NH2 [SEQ ID NO 170]
26 nM | 26 nM | 26 nM | 26 nM | 0.022 nM | 0.011 nM | 16.3 pM | H[Aib]EGS[αMeF]TSDV[αMeS]S[αMeF]LEGEAA[αMeK]E[αMeF]IA[αMeF]VVK([γGlu-γGlu-Dodecylbenzoate])GG-NH2 [SEQ ID NO 174]
28 nM | 28 nM | 28 nM | 28 nM | 0.0051 nM | 0.0026 nM | 3.8 pM | H[Aib]EGS[αMeF]TSDV[αMeS]S[αMeF]LEGEAA[αMeK]E[αMeF]IA[αMeF]VVK([Ahx-Ahx-Lauroyl])GG-NH2 (N-terminus assumed; SMILES CCCCCCCCCCCC(=O)NCCCCCC(=O)NCCCCCC(=O)NCCCC[C@H](NC(=O)[C@@H](NC(=O)[C@@H](NC(=O)[C@](C)(Cc1ccccc1)NC(=O)[C@H](C)NC(=O)[C@@H](NC(=O)[C@](C)(Cc1ccccc1)NC(=O)[C@H](CCC(=O)O)NC(=O)[C@](C)(CCCCN)NC(=O)[C@H](C)NC(=O)[C@H](C)NC(=O)[C@H](CCC(=O)O)NC(=O)CNC(=O)[C@H](CCC(=O)O)NC(=O)[C@H](CC(C)C)NC(=O)[C@](C)(Cc1ccccc1)NC(=O)[C@H](CO)NC(=O)[C@](C)(CO)NC(=O)[C@@H](NC(=O)[C@H](CC(=O)O)NC(=O)[C@H](CO)NC(=O)[C@@H](NC(=O)[C@](C)(Cc1ccccc1)NC(=O)[C@H](CO)NC(=O)CNC(=O)[C@H](CCC(=O)O)NC(=O)C(C)(C)NC(=O)[C@@H](N)Cc1c[nH]cn1)[C@@H](C)O)C(C)C)[C@@H](C)CC)C(C)C)C(C)C)C(=O)NCC(=O)NCC(N)=O) [SEQ ID NO 168]
